The source of these data is patent US20250368729A1.

What is called EC50 is the concentration at which the effect is half-maximal.

Assay [1] concerns the target Per125 wtATTR amyloid extract (human) (UniProt P02766). In words: EuLISA, substrate coated on plate.
Assay [2] addresses SHI ALλ liver amyloid extract. As to the kind of experiment: EuLISA, substrate coated on plate.
Assay [3] has as its target KEN hATTR amyloid extract (human) (UniProt P02766). As to the kind of experiment: EuLISA, substrate coated on plate.
Assay [4] has as its target synthetic amyloid-like fibrils of recombinant amyloidogenic λ6 variable domain protein (rVλ6Wil). In words: EuLISA, substrate coated on plate.
Assay [5] concerns the target TAL ALκ liver amyloid extract. As to the kind of experiment: EuLISA, substrate coated on plate.
Assay [6] deals with hIAPP fibril (UniProt P10997). As to the kind of experiment: pulldown of 125I-labelled antibody with the substrate pellet.
Assay [7] has as its target Aβ(1-40) amyloid-like fibrils (UniProt P05067). The assay is described as above.
For assay [8], the target named is KEN hATTR amyloid extract (human) (UniProt P02766). In words: pulldown, labelled antibody.
Assay [9] deals with SNO hereditary (h) ATTR amyloid extract (human) (UniProt P02766). In words: pulldown, labelled antibody.

Chain of hIAPP fibril (P10997 34-70 limits assumed): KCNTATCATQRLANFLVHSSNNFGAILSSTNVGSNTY
Chain of Aβ(1-40) amyloid-like fibrils (P05067 672-711 limits assumed): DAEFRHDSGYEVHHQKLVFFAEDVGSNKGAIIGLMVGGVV

For the substance hIgG1 control (antibody), the LogEC50 is 7.92 -log(M) in assay [1]; 7.88 -log(M) in assay [2]; 9.06 -log(M) in [3]; 5.89 -log(M) in assay [4]; 3 -log(M) in assay [5]. Besides, the Max (maximal level of binding) in assay [1] was 8.38; in assay [2], 2.5; in assay [3] it was -0.8; in assay [4] it was 39.3; in [5] it was 2220. Also, the EC50 in assay [4] was determined as 1280 nM.

In assay [3], chimeric (c) 11-1F4 (antibody) returned a LogEC50 of -1.36 and a Max (maximal level of binding) of 19700.

Take murine antibody m11-1F4: the LogEC50 in [3] is 2.39. The same substance registered a Max (maximal level of binding) in [3] of 294000. Moreover, the bound to substrate (pulldown) in assay [6] was 5.1%; in [7] it was 4.6%.

As to “murine Ig-peptide fusion Igp5 (murine 11-1F4 with peptide p5 fused to the N-terminus of the light chain) (antibody)”, the percent bound in assay [8] came out at 15%. In assay [9], the percent bound was 12%. Moreover, in [3], the concentration for a half-maximal effect (EC50) is 3.56 nM, the LogEC50 was 8.45 -log(M) and the Max (maximal level of binding) amounted to 19.9.
